± gives the uncertainty stated by the source.
Test: self-splicing fitness, log relative to wild type (ln ratio); higher = more splicing; Tetrahymena group I intron in knt gene, E. coli kanamycin selection, DiMSum; sequences stand for … in CUCUCU…GGAGGGAAAAGUUAUCAGGCAUGCACCUGGUAGCUAGUCUUUAAACCAAUAGAUUGCAUCGGUUUAAAAGGCAAGACCGUCAAAUUGCGGGAAAGGGGUCAACAGCCGUUCAGUACCAAGUCUCAGGGGAAACUUUGAGAUGGCCUUGCAAAGGGUAUGGUAAUAAGCUGACGGACAUGGUCCUAACCACGCAGCCAAGUCCUAAGUCAACAGAUCUUCUGUUGAUAUGGAUGCAGUUCACAGACUAAAUGUCGGUCGGGGAAGAUGUAUUCUUCUCAUAAGAUAUAGUCGGACCUCUCCUUAAUGGGAGCUAGCGGAUGAAGUGAUGCAACACUGGAGCCGCUGGGAACUAAUUUGUAUGCGAAAGUAUAUUGAUUAGUUUUGGAGUACUCGUGGUCG
Outline: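 Library with all eight P1ex-region intron nucleotides randomised, intron inside the knt kanamycin-resistance gene on pET-22b(+), in E. coli BL21(DE3). Cells grew overnight at 37°C or 30°C on LB agar with or without 25 μg/mL kanamycin (plus 100 μg/mL carbenicillin, 50 μM IPTG, 0.2% rhamnose), in six replicate transformations. Pooled colonies were amplicon-sequenced on Illumina HiSeq 2500. DiMSum fitness is the error-weighted combination of wild-type-normalised replicate fold changes, kanamycin versus none.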

Row | Sequence | self-splicing fitness (ln) (37 °C) | self-splicing fitness (ln) (30 °C)
1 | UGCCAGCAAUAUUACGCAAC | -0.966 ± 0.42 | –
2 | UCGUAGCAAUAUUACGGGGC | -2.55 ± 0.27 | -2.26 ± 0.2
3 | UAACAGCAAUAUUACGGGCU | -2.3 ± 0.16 | -4.01 ± 0.21
4 | AAGAAGCAAUAUUACGCGCG | -0.0457 ± 0.15 | -0.562 ± 0.12
5 | UGACAGCAAUAUUACGCUGG | -1.92 ± 0.33 | -2.21 ± 0.18
6 | CGUGAGCAAUAUUACGUUCG | -3.09 ± 0.28 | -2.61 ± 0.15
7 | CUUCAGCAAUAUUACGAGCC | -1.59 ± 0.3 | -2.29 ± 0.21
8 | CCACAGCAAUAUUACGCCCC | -2.2 ± 0.4 | -2.07 ± 0.27
9 | GUGGAGCAAUAUUACGAUGC | -1.03 ± 0.16 | -1.96 ± 0.15
10 | GGGCAGCAAUAUUACGUUAG | -0.462 ± 0.13 | -1.81 ± 0.093
11 | GUGGAGCAAUAUUACGAAGU | -1.66 ± 0.39 | -2.01 ± 0.28
12 | CCUCAGCAAUAUUACGCCUC | -1.75 ± 0.31 | -3.76 ± 0.35
13 | UGGCAGCAAUAUUACGGAGU | -3.96 ± 0.31 | -2.61 ± 0.17
14 | GUGCAGCAAUAUUACGAAUU | -0.441 ± 0.12 | -1.43 ± 0.091
15 | GACUAGCAAUAUUACGAAGA | -0.416 ± 0.13 | -1.87 ± 0.13
16 | CCCUAGCAAUAUUACGAAGG | -2.71 ± 0.23 | -4.03 ± 0.21
17 | UAGGAGCAAUAUUACGAACA | – | -2.08 ± 0.29
18 | CGCUAGCAAUAUUACGCAUC | -2.66 ± 0.29 | -3.88 ± 0.36
19 | CCCGAGCAAUAUUACGUGUU | -3 ± 0.17 | -3.93 ± 0.15
20 | UACGAGCAAUAUUACGUUGG | -2.22 ± 0.26 | –
21 | UAAUAGCAAUAUUACGGUGA | -2.39 ± 0.26 | -3.61 ± 0.3
22 | CUGCAGCAAUAUUACGUACU | -1.69 ± 0.21 | -2.89 ± 0.2
23 | GUUGAGCAAUAUUACGAAAU | -0.897 ± 0.27 | -3.35 ± 0.44
24 | UACUAGCAAUAUUACGACUC | -0.907 ± 0.34 | -1.8 ± 0.42
25 | UAAUAGCAAUAUUACGGACG | 0.175 ± 0.15 | -0.227 ± 0.12

Row | Sequence | self-splicing fitness (ln) (37 °C) | self-splicing fitness (ln) (30 °C)
26 | GGCAAGCAAUAUUACGUUCA | 0.553 ± 0.11 | -0.364 ± 0.092
27 | UGUAAGCAAUAUUACGUUUG | -0.871 ± 0.084 | -1.24 ± 0.069
28 | UCUAAGCAAUAUUACGCAUG | -2.07 ± 0.12 | -1.88 ± 0.095
29 | CAAAAGCAAUAUUACGAAGU | -2.23 ± 0.13 | -3.16 ± 0.15
30 | AACAAGCAAUAUUACGAUUG | -1.54 ± 0.13 | -4.48 ± 0.21
31 | GGAGAGCAAUAUUACGUAGG | -0.82 ± 0.25 | -3.43 ± 0.25
32 | UGUCAGCAAUAUUACGUUUA | -0.114 ± 0.089 | -0.825 ± 0.095
33 | UGGUAGCAAUAUUACGGGCA | 0.591 ± 0.13 | -0.0931 ± 0.13
34 | UGACAGCAAUAUUACGCGGU | -2.68 ± 0.19 | -3.56 ± 0.19
35 | AGAAAGCAAUAUUACGCUGA | -0.267 ± 0.15 | -3.08 ± 0.21
36 | AGUGAGCAAUAUUACGUAGC | -3.39 ± 0.39 | -1.99 ± 0.14
37 | UAACAGCAAUAUUACGGAAU | -2.24 ± 0.15 | -3.31 ± 0.14
38 | CGUCAGCAAUAUUACGCGGA | -3.17 ± 0.32 | –
39 | UUGGAGCAAUAUUACGGAUA | -2.04 ± 0.23 | -2.85 ± 0.21
40 | GCUUAGCAAUAUUACGGUCC | 0.242 ± 0.25 | -0.86 ± 0.17
41 | AGACAGCAAUAUUACGGUGG | -1.89 ± 0.17 | -3 ± 0.12
42 | UCUUAGCAAUAUUACGGUUC | -2.29 ± 0.23 | -3.68 ± 0.28
43 | ACUGAGCAAUAUUACGGCGU | 0.0319 ± 0.097 | -1.07 ± 0.079
44 | ACCGAGCAAUAUUACGGAAC | -1.63 ± 0.21 | -3.03 ± 0.29
45 | UCGAAGCAAUAUUACGUGGU | -2.88 ± 0.24 | -3.51 ± 0.18
46 | ACGCAGCAAUAUUACGAAGA | -1.43 ± 0.26 | –
47 | GAUAAGCAAUAUUACGACCG | -0.581 ± 0.36 | -1.01 ± 0.18
48 | AACGAGCAAUAUUACGUGCA | -2.01 ± 0.18 | -2.58 ± 0.13
49 | CUCGAGCAAUAUUACGCCUC | – | -1.8 ± 0.21
50 | UUGUAGCAAUAUUACGCAAC | – | -2.57 ± 0.41
